Assay results from the MegaScale stability set (Tsuboyama et al. 2023).

B1: EHEE_rd2_0196 (parent)
chain: TETRTFDSEEEAKKAQKEAEKQGRTVTITRRDDRWEVRFD

Variants of: B1
Experiment: folding stability dG (cDNA display proteolysis); higher = more stable
Conditions: PBS, room temperature

Row | Variant | folding stability dG [kcal/mol]
1 | TETGTFDSEEEAKKAQKEAEKQGRTVTITRRDDRWEVRFD [R4G] | 1.85
2 | TETKTFDSEEEAKKAQKEAEKQGRTVTITRRDDRWEVRFD [R4K] | 2.9
3 | TETWTFDSEEEAKKAQKEAEKQGRTVTITRRDDRWEVRFD [R4W] | 3.49
4 | TETFTFDSEEEAKKAQKEAEKQGRTVTITRRDDRWEVRFD [R4F] | 3.15
5 | TETQTFDSEEEAKKAQKEAEKQGRTVTITRRDDRWEVRFD [R4Q] | 2.93
6 | TETYTFDSEEEAKKAQKEAEKQGRTVTITRRDDRWEVRFD [R4Y] | 3.12
7 | TETITFDSEEEAKKAQKEAEKQGRTVTITRRDDRWEVRFD [R4I] | 3.1
8 | TETHTFDSEEEAKKAQKEAEKQGRTVTITRRDDRWEVRFD [R4H] | 2.77
9 | TETNTFDSEEEAKKAQKEAEKQGRTVTITRRDDRWEVRFD [R4N] | 2.11
10 | TETPTFDSEEEAKKAQKEAEKQGRTVTITRRDDRWEVRFD [R4P] | 1.25
11 | TETLTFDSEEEAKKAQKEAEKQGRTVTITRRDDRWEVRFD [R4L] | 3.43
12 | TETDTFDSEEEAKKAQKEAEKQGRTVTITRRDDRWEVRFD [R4D] | 1.6
13 | TETTTFDSEEEAKKAQKEAEKQGRTVTITRRDDRWEVRFD [R4T] | 2.54
14 | TETRTFQSEEEAKKAQKEAEKQGRTVTITRRDDRWEVRFD [D7Q] | 2.54
15 | TETRTFRSEEEAKKAQKEAEKQGRTVTITRRDDRWEVRFD [D7R] | 2.46
16 | TETRTFHSEEEAKKAQKEAEKQGRTVTITRRDDRWEVRFD [D7H] | 2.61
17 | TETRTFSSEEEAKKAQKEAEKQGRTVTITRRDDRWEVRFD [D7S] | 2.84
18 | TETRTFLSEEEAKKAQKEAEKQGRTVTITRRDDRWEVRFD [D7L] | 2.87
19 | TETRTFISEEEAKKAQKEAEKQGRTVTITRRDDRWEVRFD [D7I] | 2.46
20 | TETRTFGSEEEAKKAQKEAEKQGRTVTITRRDDRWEVRFD [D7G] | 2.74
21 | TETRTFFSEEEAKKAQKEAEKQGRTVTITRRDDRWEVRFD [D7F] | 3.22

Row | Variant | folding stability dG [kcal/mol]
22 | TETRTFMSEEEAKKAQKEAEKQGRTVTITRRDDRWEVRFD [D7M] | 2.82
23 | TETRTFASEEEAKKAQKEAEKQGRTVTITRRDDRWEVRFD [D7A] | 2.92
24 | TETRTFNSEEEAKKAQKEAEKQGRTVTITRRDDRWEVRFD [D7N] | 2.75
25 | TETRTFPSEEEAKKAQKEAEKQGRTVTITRRDDRWEVRFD [D7P] | 2.58
26 | TETRTFESEEEAKKAQKEAEKQGRTVTITRRDDRWEVRFD [D7E] | 2.78
27 | TETRTFKSEEEAKKAQKEAEKQGRTVTITRRDDRWEVRFD [D7K] | 2.52
28 | TETRTSDSEEEAKKAQKEAEKQGRTVTITRRDDRWEVRFD [F6S] | 0.282
29 | TETRTTDSEEEAKKAQKEAEKQGRTVTITRRDDRWEVRFD [F6T] | 0.546
30 | TETRTNDSEEEAKKAQKEAEKQGRTVTITRRDDRWEVRFD [F6N] | 0.174
31 | TETRTGDSEEEAKKAQKEAEKQGRTVTITRRDDRWEVRFD [F6G] | 0.049
32 | TETRTIDSEEEAKKAQKEAEKQGRTVTITRRDDRWEVRFD [F6I] | 0.565
33 | TETRTWDSEEEAKKAQKEAEKQGRTVTITRRDDRWEVRFD [F6W] | 1.28
34 | TETRTQDSEEEAKKAQKEAEKQGRTVTITRRDDRWEVRFD [F6Q] | 0.251
35 | TETRTEDSEEEAKKAQKEAEKQGRTVTITRRDDRWEVRFD [F6E] | 0.25
36 | TETRTVDSEEEAKKAQKEAEKQGRTVTITRRDDRWEVRFD [F6V] | 1.65
37 | TETRTPDSEEEAKKAQKEAEKQGRTVTITRRDDRWEVRFD [F6P] | -0.092
38 | TETRTDDSEEEAKKAQKEAEKQGRTVTITRRDDRWEVRFD [F6D] | 0.02
39 | TETRTRDSEEEAKKAQKEAEKQGRTVTITRRDDRWEVRFD [F6R] | 0.142
40 | TETRTMDSEEEAKKAQKEAEKQGRTVTITRRDDRWEVRFD [F6M] | 1.24
41 | TETRTYDSEEEAKKAQKEAEKQGRTVTITRRDDRWEVRFD [F6Y] | 3.19
42 | TETRTLDSEEEAKKAQKEAEKQGRTVTITRRDDRWEVRFD [F6L] | 1.22

Row | Variant | folding stability dG [kcal/mol]
43 | TETRTADSEEEAKKAQKEAEKQGRTVTITRRDDRWEVRFD [F6A] | 0.553
44 | TETRTHDSEEEAKKAQKEAEKQGRTVTITRRDDRWEVRFD [F6H] | 0.637
45 | TETRTKDSEEEAKKAQKEAEKQGRTVTITRRDDRWEVRFD [F6K] | 0.23
46 | TKTRTFDSEEEAKKAQKEAEKQGRTVTITRRDDRWEVRFD [E2K] | 2.86
47 | TRTRTFDSEEEAKKAQKEAEKQGRTVTITRRDDRWEVRFD [E2R] | 2.89
48 | TPTRTFDSEEEAKKAQKEAEKQGRTVTITRRDDRWEVRFD [E2P] | 2.48
49 | TNTRTFDSEEEAKKAQKEAEKQGRTVTITRRDDRWEVRFD [E2N] | 2.94
50 | TLTRTFDSEEEAKKAQKEAEKQGRTVTITRRDDRWEVRFD [E2L] | 2.98
51 | TFTRTFDSEEEAKKAQKEAEKQGRTVTITRRDDRWEVRFD [E2F] | 3.13
52 | TATRTFDSEEEAKKAQKEAEKQGRTVTITRRDDRWEVRFD [E2A] | 2.84
53 | THTRTFDSEEEAKKAQKEAEKQGRTVTITRRDDRWEVRFD [E2H] | 3.05
54 | TTTRTFDSEEEAKKAQKEAEKQGRTVTITRRDDRWEVRFD [E2T] | 3.11
55 | TMTRTFDSEEEAKKAQKEAEKQGRTVTITRRDDRWEVRFD [E2M] | 2.95
56 | TDTRTFDSEEEAKKAQKEAEKQGRTVTITRRDDRWEVRFD [E2D] | 2.71
57 | TGTRTFDSEEEAKKAQKEAEKQGRTVTITRRDDRWEVRFD [E2G] | 2.79
58 | TVTRTFDSEEEAKKAQKEAEKQGRTVTITRRDDRWEVRFD [E2V] | 3.15
59 | TYTRTFDSEEEAKKAQKEAEKQGRTVTITRRDDRWEVRFD [E2Y] | 3.19
60 | TSTRTFDSEEEAKKAQKEAEKQGRTVTITRRDDRWEVRFD [E2S] | 2.95
61 | TQTRTFDSEEEAKKAQKEAEKQGRTVTITRRDDRWEVRFD [E2Q] | 3.03
62 | TITRTFDSEEEAKKAQKEAEKQGRTVTITRRDDRWEVRFD [E2I] | 3.23
63 | TWTRTFDSEEEAKKAQKEAEKQGRTVTITRRDDRWEVRFD [E2W] | 3.24
